Among the data in publication PMC12582157 are Kd values, retold here.

Data set [1] deals with T1, β-conglutin (Lupinus albus (white lupin)?) (UniProt Q53HY0).
T1 sequence: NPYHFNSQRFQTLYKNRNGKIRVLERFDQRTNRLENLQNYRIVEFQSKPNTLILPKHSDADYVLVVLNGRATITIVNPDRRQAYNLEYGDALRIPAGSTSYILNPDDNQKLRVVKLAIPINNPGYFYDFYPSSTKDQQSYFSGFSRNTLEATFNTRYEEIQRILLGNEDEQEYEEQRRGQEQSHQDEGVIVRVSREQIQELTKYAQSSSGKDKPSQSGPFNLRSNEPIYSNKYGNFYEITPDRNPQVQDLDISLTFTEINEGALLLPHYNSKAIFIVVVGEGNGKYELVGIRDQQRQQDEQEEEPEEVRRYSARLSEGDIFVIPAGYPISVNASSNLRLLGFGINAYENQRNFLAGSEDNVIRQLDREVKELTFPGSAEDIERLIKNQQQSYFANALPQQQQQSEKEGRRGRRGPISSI
Description: BLI. The settings on record: 1:1 model, Binding buffer, salt.

Data set [2] has as its target T1, β-conglutin (Lupinus albus (white lupin)?). Briefly: MST. Particulars: Binding buffer, salt, pH and temperature not given in the material.
The target is the same in data set [3]. Briefly: ELAA. The settings on record: Binding buffer, salt, pH and temperature not given in the material.
The target is the same in data set [4]. Description: SPR. Particulars: dA outside the 5' primer region (nt 24-94) replaced by indole-modified dA (dAEIn); Binding buffer, salt, pH and temperature not given in the material.
[5] abbreviates: dA outside the 5' primer region (nt 24-94) replaced by indole-modified dA (dAEIn).
Setting [6] is: all dA = dAEIn, 5' dC carries Cy5.

“AGCTCCAGAAGATAAATTACAGGCCAAGATCTCGCGAGTTCCCAACAGGGCAGAGAGATGCCCGACACCAGTG [HB8_T1]”: the Kd in data set [1] (dA in nt 24-73 = dAEIn, pH and temperature not given in the material) was found to be 0.6 nM; in data set [2] (dA in nt 24-73 = dAEIn) it was 42 nM.
For “AGCTCCAGAAGATAAATTACAGGCCAAGATCTCGCGAGTTCCCAACAGGGCAGAGAGATGCCCGACACCAGTGCAACTAGGATACTATGACCCC [HB8_M1]”, the equilibrium dissociation constant (Kd) in data set [2] (dAEIn as in HB8 except three central positions following the primer, which are natural dA) came to 134 nM.
Take “AGCTCCAGAAGATAAATTACAGGCAAGATCACCGTAGACGCGTCGAGAAGTGTGAGATCCTATGAAATGACCGCAACTAGGATACTATGACCCC [HB7]”: in data set [3] (dA outside 5' primer = dAEIn), the Kd came out at 1.1 nM.
Turning to “AGCTCCAGAAGATAAATTACAGGCCAAGATCTCGCGAGTTCCCAACAGGGCAGAGAGATGCCCGACACCAGTGCAACTAGGATACTATGACCCC [HB8]”, the Kd worked out at 92 nM in data set [4]; 0.9 nM in data set [1] (dA outside the 5' primer region (nt 24-94) replaced by indole-modified dA (dAEIn), pH and temperature not given in the …); 41 nM in data set [2] (setting [5]); 0.6 nM in data set [3] (setting [5]).
With “AGCTCCAGAAGATAAATTACAGGCCAAGATCTCGCGAGTTCCCAACAGGGCAGAGAGATGCCCGACACCAGTGCAACTAGGATACTATGACCCC [HB8_M2]”, the Kd in data set [2] (dAEIn in nt 24-73, 3' 21 nt with natural dA) is 44 nM.
In the case of “CCAAGATCTCGCGAGTTCCCAACAGGGCAGAGAGATGCCCGACACCAGTGCAACTAGGATACTATGACCCC [HB8_T2]”, in data set [2] (setting [6]), the Kd amounted to 256 nM.
As for “GATAAATTACAGGCCAAGATCTCGCGAGTTCCCAACAGGGCAGAGAGATGCCCGACACCAGTGCAACTAGGATACTATGACCCC [HB8_T4]”, in data set [2] (dA after the 13 nt primer remainder = dAEIn), the Kd turned out to be 24 nM.
Consider “CCAAGATCTCGCGAGTTCCCAACAGGGCAGAGAGATGCCCGACACCAGTG [HB8_T3]”, for which the Kd in data set [2] (setting [6]) came to 145 nM.
